Experiments:
[1] = molecular target: beta-catenin (canine (endogenous in MDCK)) (UniProt B6V8E6); assay: co-IP
[2] = molecular target: p120/p100 (anti-p120 immunoreactive material), canine (canine (endogenous in MDCK)); assay: co-IP

“p120/p100 (anti-p120 immunoreactive material), canine (natural protein)” was tested, and the percent of the pool in association, normalised to 100% efficiency [1] was 21%.

B1: beta-catenin (natural protein)
chain: MATQADLMELDMAMEPDRKAAVSHWQQQSYLDSGIHSGATTTAPSLSGKGNPEEEDVDTTQVLYEWEQGFSQSFTQEQVADIDGQYAMTRAQRVRAAMFPETLDEGMQIPSTQFDAAHPTNVQRLAEPSQMLKHAVVNLINYQDDAELATRAIPELTKLLNDEDQVVVNKAAVMVHQLSKKEASRHAIMRSPQMVSAIVRTMQNTNDVETARCTAGTLHNLSHHREGLLAIFKSGGIPALVKMLGSPVDSVLFYAITTLHNLLLHQEGAKMAVRLAGGLQKMVALLNKTNVKFLAITTDCLQILAYGNQESKLIILASGGPQALVNIMRTYTYEKLLWTTSRVLKVLSVCSSNKPAIVEAGGMQALGLHLTDPSQRLVQNCLWTLRNLSDAATKQEGMEGLLGTLVQLLGSDDINVVTCAAGILSNLTCNNYKNKMMVCQVGGIEALVRTVLRAGDREDITEPAICALRHLTSRHQEAEMAQNAVRLHYGLPVVVKLLHPPSHWPLIKATVGLIRNLALCPANHAPLREQGAIPRLVQLLVRAHQDTQRRTSMGGTQQQFVEGVRMEEIVEGCTGALHILARDVHNRIVIRGLNTIPLFVQLLYSPIENIQRVAAGVLCELAQDKEAAEAIEAEGATAPLTELLHSRNEGVATYAAAVLFRMSEDKPQDYKKRLSVELTSSLFRTEPMAWNETADLGLDIGAQGEPLGYRQDDPSYRSFHSGGYGQDALGMDPMMEHEMGGHHPGADYPVDGLPDLGHAQDLMDGLPPGDSNQLAWFDTDL
Work on B1 yielded a percent of the pool in association, normalised to 100% efficiency [2] of 24%.
